Consider five substances from publication PMC6216019.

Read-outs that look alike come from different tables or passages of the source.

The target of assay [1] is AcrB-CFP (E. coli) (UniProt P31224). The assay is described as follows: FRET or BRET.
For assay [2] the target is unchanged. The assay is described as follows: FRET or BRET. This is another data set of the same source.
Another assay addresses AcrB_(P223G) (E. coli) (UniProt P31224). The assay can be described thus: native gel or EMSA.
For assay [3], the target named is AcrB_(P223G)-CFP (E. coli) (UniProt P31224). The assay is described as follows: FRET or BRET.
The target is the same in assay [4]. The assay is described as follows: FRET or BRET. This is another data set of the same source.
In assay [5] the target is AcrB_(P223G/V225C/A777C) (E. coli) (UniProt P31224). The assay is described as follows: cross-linking.
In assay [6] the target is AcrB_(V225C/A777C) (E. coli) (UniProt P31224). The assay can be described thus: cross-linking.

For the substance “AcrB-YPet (from UniProt P31224 1-1049) (natural protein)”, the FRET efficiency worked out at 35% with AcrB-CFP (E. coli) [1] and 50% with AcrB-CFP (E. coli) [2].

Substance “AcrB_(P223G) (from UniProt P31224 1-1049) (natural protein)” returned a stoichiometry N with AcrB_(P223G) (E. coli) of 3.

“AcrB_(P223G)-YPet (from UniProt P31224 1-1049) (natural protein)”: the FRET efficiency was 26% in assay [3] and 22% in assay [4].

“AcrB_(P223G/V225C/A777C) (from UniProt P31224 1-1049) (natural protein)”: the stoichiometry N in assay [5] was found to be 3.

In assay [6], “AcrB_(V225C/A777C) (from UniProt P31224 1-1049) (natural protein)” showed a stoichiometry N of 3.
